B1: GFAT-1 (human GFAT-1 isoform 2, hGFAT1) (Homo sapiens; R306H) (protein)
chain: CGIFAYLNYHVPRTRREILETLIKGLQRLEYRGYDSAGVGFDGGNDKDWEANACKIQLIKKKGKVKALDEEVHKQQDMDLDIEFDVHLGIAHTRWATHGEPSPVNSHPQRSDKNNEFIVIHNGIITNYKDLKKFLESKGYDFESETDTETIAKLVKYMYDNRESQDTSFTTLVERVIQQLEGAFALVFKSVHFPGQAVGTRRGSPLLIGVRSEHKLSTDHIPILYRTGKDKKGSCNLSRVDSTTCLFPVEEKAVEYYFASDASAVIEHTNRVIFLEDDDVAAVVDGHLSIHRIKRTAGDHPGRAVQTLQMELQQIMKGNFSSFMQKEIFEQPESVVNTMRGRVNFDDYTVNLGGLKDHIKEIQRCRRLILIACGTSYHAGVATRQVLEELTELPVMVELASDFLDRNTPVFRDDVCFFLSQSGETADTLMGLRYCKERGALTVGITNTVGSSISRETDCGVHINAGPEIGVASTKAYTSQFVSLVMFALMMCDDRISMQERRKEIMLGLKRLPDLIKEVLSMDDEIQKLATELYHQKSVLIMGRGYHYATCLEGALKIKEITYMHSEGILAGELKHGPLALVDKLMPVIMIIMRDHTYAKCQNALQQVVARQGRPVVICDKEDTETIKNTKRTIKVPHSVDCLQGILSVIPLQLLAFHLAVLRGYDVDFPRNLAKSVTVE
notes: full length, internal His6-tag between Gly299 and Asp300 (kept), expressed in Sf21 insect cells (MultiBac), Ni-NTA and SEC purified
B2: GFAT-1 (human GFAT-1 isoform 2, hGFAT1) (Homo sapiens; L508R) (protein)
chain: CGIFAYLNYHVPRTRREILETLIKGLQRLEYRGYDSAGVGFDGGNDKDWEANACKIQLIKKKGKVKALDEEVHKQQDMDLDIEFDVHLGIAHTRWATHGEPSPVNSHPQRSDKNNEFIVIHNGIITNYKDLKKFLESKGYDFESETDTETIAKLVKYMYDNRESQDTSFTTLVERVIQQLEGAFALVFKSVHFPGQAVGTRRGSPLLIGVRSEHKLSTDHIPILYRTGKDKKGSCNLSRVDSTTCLFPVEEKAVEYYFASDASAVIEHTNRVIFLEDDDVAAVVDGRLSIHRIKRTAGDHPGRAVQTLQMELQQIMKGNFSSFMQKEIFEQPESVVNTMRGRVNFDDYTVNLGGLKDHIKEIQRCRRLILIACGTSYHAGVATRQVLEELTELPVMVELASDFLDRNTPVFRDDVCFFLSQSGETADTLMGLRYCKERGALTVGITNTVGSSISRETDCGVHINAGPEIGVASTKAYTSQFVSLVMFARMMCDDRISMQERRKEIMLGLKRLPDLIKEVLSMDDEIQKLATELYHQKSVLIMGRGYHYATCLEGALKIKEITYMHSEGILAGELKHGPLALVDKLMPVIMIIMRDHTYAKCQNALQQVVARQGRPVVICDKEDTETIKNTKRTIKVPHSVDCLQGILSVIPLQLLAFHLAVLRGYDVDFPRNLAKSVTVE
notes: as for B1
B3: GFAT-1 (human GFAT-1 isoform 2, hGFAT1) (Homo sapiens; S308D) (protein)
chain: CGIFAYLNYHVPRTRREILETLIKGLQRLEYRGYDSAGVGFDGGNDKDWEANACKIQLIKKKGKVKALDEEVHKQQDMDLDIEFDVHLGIAHTRWATHGEPSPVNSHPQRSDKNNEFIVIHNGIITNYKDLKKFLESKGYDFESETDTETIAKLVKYMYDNRESQDTSFTTLVERVIQQLEGAFALVFKSVHFPGQAVGTRRGSPLLIGVRSEHKLSTDHIPILYRTGKDKKGSCNLSRVDSTTCLFPVEEKAVEYYFASDASAVIEHTNRVIFLEDDDVAAVVDGRLDIHRIKRTAGDHPGRAVQTLQMELQQIMKGNFSSFMQKEIFEQPESVVNTMRGRVNFDDYTVNLGGLKDHIKEIQRCRRLILIACGTSYHAGVATRQVLEELTELPVMVELASDFLDRNTPVFRDDVCFFLSQSGETADTLMGLRYCKERGALTVGITNTVGSSISRETDCGVHINAGPEIGVASTKAYTSQFVSLVMFALMMCDDRISMQERRKEIMLGLKRLPDLIKEVLSMDDEIQKLATELYHQKSVLIMGRGYHYATCLEGALKIKEITYMHSEGILAGELKHGPLALVDKLMPVIMIIMRDHTYAKCQNALQQVVARQGRPVVICDKEDTETIKNTKRTIKVPHSVDCLQGILSVIPLQLLAFHLAVLRGYDVDFPRNLAKSVTVE
notes: as for B1

Substrate: NC(=O)CC[C@H](N)C(=O)O
Experiment: purified protein
Type: biochemical, Homo sapiens
Conditions: 6 mM Frc6P, 1 mM APAD, 50 mM KCl, 100 mM potassium phosphate pH 7.5, 37 °C

Row | Protein | Km | kcat | kcat/Km
1 | B1 | 1600 ± 270 µM | 4.8 ± 0.26 s⁻¹ | 3000 M⁻¹ s⁻¹
2 | B2 | 1000 ± 100 µM | 3 ± 0.08 s⁻¹ | 3000 M⁻¹ s⁻¹
3 | B3 | 1300 ± 230 µM | 1.5 ± 0.08 s⁻¹ | 1200 M⁻¹ s⁻¹
